Laboratory results as given in patent US20240181006A1 (Merck KGaA, published 2024).
Where a chain is given by its changes, count along the chain named.

Legend:
human MMP13 (activated) [1] = target: T1, human MMP13 (activated) (human, UniProt P45452 104-471); experiment: cell-based or functional assay
rat MMP13 (activated) [2] = target: T2, rat MMP13 (activated) (rat, UniProt P23097 99-466); experiment: cell-based or functional assay
dog MMP13 (activated) = dog MMP13 (activated) (dog, UniProt A0A8I3MWY2 129-496); experiment: cell-based or functional assay
bovine MMP13 (activated) = bovine MMP13 (activated) (bovine, UniProt O77656 104-471, limits assumed); experiment: cell-based or functional assay
[3] = target: cynomolgus MMP13 (activated) (cynomolgus, UniProt A0A2K5U988 104-471); experiment: cell-based or functional assay
human ADAMTS5 [4] = target: T3, human ADAMTS5 (human, UniProt Q9UNA0 262-622, limits assumed); experiment: cell-based or functional assay
T3 sequence: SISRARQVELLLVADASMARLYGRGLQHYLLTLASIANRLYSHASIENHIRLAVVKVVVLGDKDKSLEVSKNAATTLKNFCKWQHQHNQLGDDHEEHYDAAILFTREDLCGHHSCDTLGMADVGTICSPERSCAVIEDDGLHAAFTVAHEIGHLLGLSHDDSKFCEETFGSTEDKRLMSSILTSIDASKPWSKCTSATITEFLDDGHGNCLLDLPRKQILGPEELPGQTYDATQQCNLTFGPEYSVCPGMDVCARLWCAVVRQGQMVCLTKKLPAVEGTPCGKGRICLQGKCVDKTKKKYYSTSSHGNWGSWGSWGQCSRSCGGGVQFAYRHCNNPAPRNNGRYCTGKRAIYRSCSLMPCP

human ADAMTS5 [5] = target: T3, human ADAMTS5; experiment: SPR (Biacore T100), ADAMTS5 immobilized on CM5, 100 nM ISVD, Experiment 1
Experimental: (§1) Species cross-reactivity was initially evaluated via SPR-based off-rate analysis on a Biacore T100 instrument. Polypeptides were tested for binding to human, cynomolgus monkey (“cyno”), guinea pig, mouse, and bovine ADAMTS5. To this end, recombinant ADAMTS5 was immobilized onto a CM5 chip via amine coupling using EDC and NHS. […] Off-rate for each individual ADAMTS5 was determined by fitting a 1:1 interaction model (Langmuir model) onto the individual dissociation curves using the BIA Evaluation software. As a reference, off-rates on human ADAMTS5 were determined in each experiment.

cynomolgus ADAMTS5 [6] = target: T4, cynomolgus ADAMTS5 (cynomolgus, UniProt A0A2K5X879 260-620); experiment: as above
T4 construct: also called cyno ADAMTS5
T4 sequence: T3 sequence with L214Q, S356G
Experimental: as §1

guinea pig ADAMTS5 = guinea pig ADAMTS5 (guinea pig); experiment: as above
Experimental: as §1

human ADAMTS5 [7] = target: T3, human ADAMTS5; experiment: SPR (Biacore T100), ADAMTS5 immobilized on CM5, 100 nM ISVD, Experiment 2
Experimental: as §1

mouse ADAMTS5 = target: T5, mouse ADAMTS5 (mouse, UniProt Q9R001 262-622, limits assumed); experiment: as above
T5 sequence (looked up): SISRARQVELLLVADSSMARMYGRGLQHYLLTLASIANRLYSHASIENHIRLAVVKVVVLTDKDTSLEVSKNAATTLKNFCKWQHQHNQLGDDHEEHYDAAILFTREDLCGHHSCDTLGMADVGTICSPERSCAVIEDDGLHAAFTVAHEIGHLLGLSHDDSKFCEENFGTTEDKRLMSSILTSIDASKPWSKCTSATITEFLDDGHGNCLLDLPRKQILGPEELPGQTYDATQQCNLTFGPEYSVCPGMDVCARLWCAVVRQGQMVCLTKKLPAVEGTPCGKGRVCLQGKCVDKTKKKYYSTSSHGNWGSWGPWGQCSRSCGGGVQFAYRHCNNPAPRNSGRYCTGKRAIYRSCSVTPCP
Experimental: as §1

human ADAMTS5 [8] = target: T3, human ADAMTS5; experiment: SPR (Biacore T100), ADAMTS5 immobilized on CM5, 100 nM ISVD, Experiment 3
Experimental: as §1

cynomolgus ADAMTS5 [9] = target: T4, cynomolgus ADAMTS5; experiment: KinExA, in solution (N=1)
Experimental: (§2) All dilutions were prepared in sample buffer (PBS+0.1% BSA+0.02% NaN₃).
(§3) Percent free Nanobody construct was plotted as a function of ADAMTS5 concentration and fitted using the KinExA Pro Software v3.6.5 to determine the KD.

rat ADAMTS5 = target: T6, rat ADAMTS5 (rat, UniProt Q6TY19 262-928); experiment: KinExA, in solution (N=1)
T6 sequence: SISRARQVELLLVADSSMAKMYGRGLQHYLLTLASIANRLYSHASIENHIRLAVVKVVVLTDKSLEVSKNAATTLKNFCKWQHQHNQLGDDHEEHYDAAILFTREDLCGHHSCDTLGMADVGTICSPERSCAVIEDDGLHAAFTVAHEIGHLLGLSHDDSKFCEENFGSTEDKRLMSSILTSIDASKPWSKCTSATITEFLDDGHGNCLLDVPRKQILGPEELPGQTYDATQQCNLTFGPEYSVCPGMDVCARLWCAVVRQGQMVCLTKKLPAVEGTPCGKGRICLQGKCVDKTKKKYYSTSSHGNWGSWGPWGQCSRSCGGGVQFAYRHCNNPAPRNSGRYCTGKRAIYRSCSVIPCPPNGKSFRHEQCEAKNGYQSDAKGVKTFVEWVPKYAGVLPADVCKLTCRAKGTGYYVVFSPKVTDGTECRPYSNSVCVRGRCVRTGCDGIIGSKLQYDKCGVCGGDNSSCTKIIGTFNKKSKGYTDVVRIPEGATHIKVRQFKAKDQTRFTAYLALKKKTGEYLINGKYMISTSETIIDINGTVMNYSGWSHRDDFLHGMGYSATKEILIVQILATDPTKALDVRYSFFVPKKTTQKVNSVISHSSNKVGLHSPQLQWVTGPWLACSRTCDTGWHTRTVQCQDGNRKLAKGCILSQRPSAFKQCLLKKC
Experimental: as §2, §3

human ADAMTS5 [10] = target: T3, human ADAMTS5; experiment: cell-based or functional assay; remark: listed apart in the source
cynomolgus ADAMTS5 [11] = target: T4, cynomolgus ADAMTS5; experiment: cell-based or functional assay
rat MMP13 (activated) [12] = target: T2, rat MMP13 (activated); experiment: cell-based or functional assay; remark: listed apart in the source
[13] = target: T7, human MMP13 catalytic domain (human, UniProt P45452 104-274); experiment: cell-based or functional assay
[14] = target: T8, cynomolgus MMP13 catalytic domain (cynomolgus, UniProt A0A2K5U988 104-274); experiment: cell-based or functional assay
[15] = target: T9, rat MMP13 catalytic domain (rat, UniProt P23097 99-269); experiment: cell-based or functional assay
human ADAMTS5 [16] = target: T3, human ADAMTS5; experiment: KinExA, in solution, without Aggrecan G1-IGD-G2 (average, N=3)
Experimental: as §2, §3

rat MMP13 (activated) [17] = target: T2, rat MMP13 (activated); experiment: FRET-based kinetic enzyme assay, IC50 equals KI (average, N=2)
Experimental: (§4) All dilutions were made in assay buffer (50 mM Tris (pH 7.5), 100 mM NaCl, 10 mM CaCl₂)*2H₂O, 0.01% Tween20). […] This collagen-based substrate contains the generic MMP cleavage sequence Proline-Leucine-Glycine-Leucine (PLGL) and is labelled with a fluorochrome, Mca, and a quencher, Dpa. […] Starting within one minute after addition of the substrate, fluorescence was measured kinetically every minute for a total of 120 cycles (2 hours) using a Tecan F200 plate reader.
(§5) The obtained progress curves (fluorescent signal in function of reaction time) were analyzed using GraphPad Prism software, by fitting the linear portion of each progress curve with a straight line (Y=slope*X+Y-intercept).

human MMP13 (activated) [18] = target: T1, human MMP13 (activated); experiment: FRET-based kinetic enzyme assay, IC50 equals KI (average, N=3)
Experimental: as §4, §5

[19] = target: T8, cynomolgus MMP13 catalytic domain; experiment: as above
Experimental: as §4, §5

[20] = target: T9, rat MMP13 catalytic domain; experiment: as above
Experimental: as §4, §5

[21] = target: T7, human MMP13 catalytic domain; experiment: FRET-based kinetic enzyme assay, IC50 equals KI (average, N=6)
Experimental: as §4, §5

human ADAMTS5 [22] = target: T3, human ADAMTS5; experiment: KinExA, in solution, in presence of 2 nM Aggrecan G1-IGD-G2 (average, N=3)
Experimental: as §2, §3

[23] = target: T10, recombinant cynomolgus Aggrecan G1-IGD-G2 (cynomolgus); experiment: SPR (ProteOn XPR36), Aggrecan G1-IGD-G2 immobilized, 949 as analyte (average, N=2)
T10 construct: domain: G1-IGD-G2; also called Cy G1-IGD-G2
Experimental: (§6) Dissociation time was 10 min. After each sample injection the surfaces were regenerated with 10 mM glycine pH 1.5. […] This change in refractive index causes a change in the intensity and angle of reflected light which is quantitatively measured in real-time and plotted as response units (RU) versus time on a sensorgram. The kinetic constants were calculated from the obtained sensorgrams using ProteOn Manager 3.1.0 version 3.1.0.6 software and the ‘kinetic Langmuir kₐ/kd simultaneous’ model.

[24] = target: T11, recombinant rat Aggrecan G1-IGD-G2 (rat, UniProt P07897 20-684, limits assumed); experiment: SPR (ProteOn XPR36), Aggrecan G1-IGD-G2 immobilized, 949 as analyte (average, N=3)
T11 construct: domain: G1-IGD-G2; also called Rat G1-IGD-G2
Experimental: as §6

[25] = target: T12, recombinant human Aggrecan G1-IGD-G2 (human, UniProt P16112 20-676); experiment: SPR (ProteOn XPR36), Aggrecan G1-IGD-G2 immobilized, 949 as analyte (average, N=4)
T12 construct: also called Hu G1-IGD-G2
Experimental: as §6

B1: anti-MMP13 ISVD 62C02 (VHH)
VHH: EVQLVESGGGVVQPGGSLRLSCAASGFAFSAAYMSWVRQAPGKGLEWVSSISDDGSKTYYADSVKGRFTISRDNSKNTVYLQMNSLRPEDTALYYCNTGYGATTTRPGRYWGQGTLVTVSS
- IC50, human collagenolytic assay (human MMP13 (activated) [1]): 1.4 nM
- IC50, human fluorogenic collagen assay (human MMP13 (activated) [1]): 8.3 nM
- IC50, human fluorogenic peptide assay (human MMP13 (activated) [1]): 1.4 nM
- IC50, rat fluorogenic peptide assay (rat MMP13 (activated) [2]): 1.1 nM
- IC50, dog fluorogenic peptide assay (dog MMP13 (activated)): 1 nM
- IC50, bovine fluorogenic peptide assay (bovine MMP13 (activated)): 3.1 nM
- IC50, cyno fluorogenic peptide assay [3]: 1.4 nM

B2: anti-ADAMTS5 ISVD 02F03 (VHH)
VHH: EVQLVESGGGVVQPGGSLRLSCAASGRTVSSYAMGWFRQAPGKEREFVAGISRSAERTYYVDSLKGRFTISRDNSKNTVYLQMNSLRPEDTALYYCAADLDPNRIFSREEYAYWGQGTLVTVSS
notes: Purified monovalent ISVD; also called 2F03 ATS5
- IC50, Human AlphaLISA enzymatic assay (human ADAMTS5 [4]): 0.075 nM
- IC50, Human FRET enzymatic assay (human ADAMTS5 [4]): 1.8 nM
- koff (human ADAMTS5 [5]): 3.3e-05 s⁻¹
- koff (cynomolgus ADAMTS5 [6]): 2.2e-05 s⁻¹
- koff (guinea pig ADAMTS5): 3.4e-05 s⁻¹
- koff (human ADAMTS5 [7]): 6.5e-05 s⁻¹
- koff (mouse ADAMTS5): 0.00029 s⁻¹
- koff (human ADAMTS5 [8]): 9.7e-05 s⁻¹

B3: polypeptide 949 (62C02-2F03-114F08-114F08, 35GS linkers) (other)
chain: EVQLVESGGGVVQPGGSLRLSCAASGFAFSAAYMSWVRQAPGKGLEWVSSISDDGSKTYYADSVKGRFTISRDNSKNTVYLQMNSLRPEDTALYYCNTGYGATTTRPGRYWGQGTLVTVSSGGGGSGGGGSGGGGSGGGGSGGGGSGGGGSGGGGSEVQLVESGGGVVQPGGSLRLSCAASGRTVSSYAMGWFRQAPGKEREFVAGISRSAERTYYVDSLKGRFTISRDNSKNTVYLQMNSLRPEDTALYYCAADLDPNRIFSREEYAYWGQGTLVTVSSGGGGSGGGGSGGGGSGGGGSGGGGSGGGGSGGGGSEVQLVESGGGVVQPGGSLRLSCAASGSTFIINVVRWYRRAPGKQRELVATISSGGNANYVDSVRGRFTISRDNSKNTVYLQMNSLRPEDTALYYCNVPTTHYGGVYYGPYWGQGTLVTVSSGGGGSGGGGSGGGGSGGGGSGGGGSGGGGSGGGGSEVQLVESGGGVVQPGGSLRLSCAASGSTFIINVVRWYRRAPGKQRELVATISSGGNANYVDSVRGRFTISRDNSKNTVYLQMNSLRPEDTALYYCNVPTTHYGGVYYGPYWGQGTLVTVSSA
notes: Tetravalent, trispecific VHH construct: anti-MMP13, anti-ADAMTS5 and two anti-Aggrecan units; also called C010100949; ALX-1011
- Kd (cynomolgus ADAMTS5 [9]): 0.0244 nM
- Kd (rat ADAMTS5): 0.0252 nM
- IC50 (read off the curve); FRET-based enzymatic activity assay, Vi/V0 (human ADAMTS5 [10]): ~4 nM
- IC50 (read off the curve); FRET-based enzymatic activity assay, Vi/V0 (cynomolgus ADAMTS5 [11]): 3 to 4 nM
- IC50 (read off the curve); FRET-based enzymatic activity assay, Vi/V0 [right panel] (rat MMP13 (activated) [12]): ~10 nM
- IC50 (read off the curve); FRET-based enzymatic activity assay, Vi/V0 [left panel] [13]: ~30 nM
- IC50 (read off the curve); FRET-based enzymatic activity assay, Vi/V0 [left panel] [14]: ~20 nM
- IC50 (read off the curve); FRET-based enzymatic activity assay, Vi/V0 [left panel] [15]: ~30 nM
- Kd (human ADAMTS5 [16]): 0.0327 nM
- Ki (rat MMP13 (activated) [17]): 13 nM
- Ki (human MMP13 (activated) [18]): 2.92 nM
- Ki [19]: 20.2 nM
- Ki [20]: 26.6 nM
- Ki [21]: 27.9 nM
- Kd (human ADAMTS5 [22]): 0.0266 nM
- Kd [23]: 0.016 nM
- Kd [24]: 0.0166 nM
- Kd [25]: 0.014 nM
